Assay results taken from patent US20190345225A1 (KEROS THERAPEUTICS, published 2019).
Positions count from the first letter of the chain named.

T1: extracellular ActRIIb (SEQ ID NO: 74) fused to the N-terminus of hFc through a GGG linker (human, UniProt Q13705 20-134)
T1 construct: also called ActRIIb (41-155); wild-type extracellular ActRIIb; not shown: human Fc (hFc)
T1 sequence: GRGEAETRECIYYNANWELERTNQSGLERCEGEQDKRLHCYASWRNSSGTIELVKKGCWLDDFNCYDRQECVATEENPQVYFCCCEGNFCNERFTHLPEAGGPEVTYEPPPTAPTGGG

B1: extracellular ActRIIb variant (SEQ ID NO: 149) fused to the N-terminus of hFc through a GGG linker (Fc fusion)
chain: GRGEAETRECIFYNANWEKDRTNQSGLEPCYGDQDKRRHCFASWKNSSGTIELVKQGCWLDDINCYDRQECVAKKDSPEVYFCCCEGNFCNERFTHLPEAGGPEVTYEPPPTAPTGGG
notes: also called ActRIIb/a variant; ActRIIb/a; not shown: human Fc (hFc)
B2: Activin B (ligand, UniProt P09529 293-407, looked up)
chain: GLECDGRTNLCCRQQFFIDFRLIGWNDWIIAPTGYYGNYCEGSCPAYLAGVPGSASSFHTAVVNQYRMRGLNPGTVNSCCIPTKLSTMSMLYFDDEYNIVKRDVPNMIVEECGCA
B3: Activin A (ligand, UniProt P08476 311-426, looked up)
chain: GLECDGKVNICCKKQFFVSFKDIGWNDWIIAPSGYHANYCEGECPSHIAGTSGSSLSFHSTVINHYRMRGHSPFANLKSCCVPTKLRPMSMLYYDDGQNIIKKDIQNMIVEECGCS
B4: extracellular ActRIIa (SEQ ID NO: 73) fused to the N-terminus of hFc through a GGG linker (Fc fusion)
chain: AILGRSETQECLFFNANWEKDRTNQTGVEPCYGDKDKRRHCFATWKNISGSIEIVKQGCWLDDINCYDRTDCVEKKDSPEVYFCCCEGNMCNEKFSYFPEMEVTQPTSGGG
notes: also called ActRIIa (19-127); wild-type extracellular ActRIIa; not shown: human Fc (hFc)
B5: ActRIIa/bmax2 (SEQ ID NO: 71) fused to the N-terminus of hFc through a GGG linker (Fc fusion)
chain: GAILGRSETQECLFYNANWELERTNQTGVERCEGEKDKRLHCYATWRNISGSIEIVKKGCWLDDFNCYDRTDCVETEENPQVYFCCCEGNMCNEKFSYFPEMEVTQPTSNPGGG
notes: also called ActRIIa/bmax2 variant; not shown: human Fc (hFc)
B6: ActRIIa/bmax3 variant (SEQ ID NO: 72) fused to the N-terminus of hFc through a GGG linker (Fc fusion)
chain: GAILGRSETQECLFYNANWELERTNQTGVERCEGEKDKRLHCYATWRNISGSIEIVKKGCWLDDFNCYDRTDCVETEENPQVYFCCCEGNMCNEKFSYFPEMEVTQPTSNPVTPKGGG
notes: not shown: human Fc (hFc)
B7: extracellular ActRIIa/bΔ9 variant (SEQ ID NO: 58) fused to the N-terminus of hFc through a GGG linker (Fc fusion)
chain: GAILGRSETQECLFYNANWELDRTNQTGVERCEGEKDKRLHCYATWRNISGSIEIVKKGCWLDDFNCYDRTDCVETKENPQVYFCCCEGNMCNEKFSYFPEMEVTQPTSGGG
notes: also called ActRIIA/BΔ9-Fc; not shown: human Fc (hFc)
B8: ActRIIa/b+ (SEQ ID NO: 150) fused to the N-terminus of hFc through a GGG linker (Fc fusion)
chain: B7 chain with D22E, K57A, K77E
notes: also called ActRIIab+ variant; not shown: human Fc (hFc)
B9: ActRIIa/b-delta 9m3 (SEQ ID NO: 41) fused to the N-terminus of hFc through a GGG linker (Fc fusion)
chain: B7 chain with Y43F
notes: also called ActRIIa/bΔ9m3 variant; not shown: human Fc (hFc)
B10: extracellular ActRIIa/bΔ9 min variant (SEQ ID NO: 6) fused to the N-terminus of hFc through a GGG linker (Fc fusion)
chain: B7 chain with R31P, Y43F, R47K, F65I
notes: not shown: human Fc (hFc)
B11: ActRIIa/b-delta 9m4 (SEQ ID NO: 44) fused to the N-terminus of hFc through a GGG linker (Fc fusion)
chain: B7 chain with R31P
notes: also called ActRIIa/bΔ9m4 variant; not shown: human Fc (hFc)
B12: ActRIIa/b-delta 9m2 (SEQ ID NO: 38) fused to the N-terminus of hFc through a GGG linker (Fc fusion)
chain: B7 chain with F65I
notes: also called ActRIIa/bΔ9m2 variant; not shown: human Fc (hFc)
B13: extracellular ActRIIa/b variant (SEQ ID NO: 69) fused to the N-terminus of hFc through a GGG linker (Fc fusion)
chain: B7 chain with D22E, K77E
notes: also called ActRIIA/B-Fc; not shown: human Fc (hFc)
B14: ActRIIa/bmax1 (SEQ ID NO: 70) fused to the N-terminus of hFc through a GGG linker (Fc fusion)
chain: B7 chain with F14Y, D22E, K36Q, K77E
notes: also called ActRIIa/bmax1 variant; not shown: human Fc (hFc)
B15: BMP-9 (ligand, UniProt Q9UK05 320-429, looked up)
chain: SAGAGSHCQKTSLRVNFEDIGWDSWIIAPKEYEAYECKGGCFFPLADDVTPTKHAIVQTLVHLKFPTKVGKACCVPTKLSPISVLYKDDMGVPTLKYHYEGMSVAECGCR
notes: also called bone morphogenetic protein 9
B16: growth differentiation factor 11 (GDF11) (ligand, UniProt O95390 299-407, looked up)
chain: NLGLDCDEHSSESRCCRYPLTVDFEAFGWDWIIAPKRYKANYCSGQCEYMFMQKYPHTHLVQQANPRGSAGPCCTPTKMSPINMLYFNDKQQIIYGKIPGMVVDRCGCS

Molecular target: B3
Experiment: SPR, Biacore 3000; receptor fusion captured on the chip by antibody, ligand run in a concentration series

binding result	Binder
no binding	B1

Molecular target: B16
Experiment: as above

binding result	Binder
no binding	B1

Molecular target: B2
Experiment: as above

binding result	Binder
no binding	B1

Molecular target: T1, extracellular ActRIIb (SEQ ID NO: 74) …
Experiment: SPR, Biacore 3000; receptor fusion captured on chip, ligand in solution

Kd	Binder
0.023 nM	B2
0.063 nM	B3

Molecular target: B3
Experiment: as above

Kd	Binder
1 nM	B4
0.135 nM	B5
0.089 nM	B6
0.213 nM	B7
0.242 nM	B8
0.071 nM	B9
0.31 nM	B10
0.375 nM	B11
0.17 nM	B12
0.542 nM	B13
0.232 nM	B14

Molecular target: B4
Experiment: as above

Kd	Binder
25 nM	B15
0.081 nM	B16

Molecular target: B15
Experiment: as above

Kd	Binder
5 nM	B5
3.3 nM	B6
10 nM	B7
26 nM	B8
1.2 nM	B9
17 nM	B10
14 to 20 nM	B11
13 to 18 nM	B12
4 nM	B13
5.6 nM	B14

Molecular target: B16
Experiment: as above

Kd	Binder
0.113 nM	B5
0.214 nM	B6
0.115 nM	B7
0.117 nM	B9
0.114 nM	B10
0.394 nM	B11
0.222 nM	B12
0.186 nM	B13
0.236 nM	B14

Molecular target: B2
Experiment: as above

Kd	Binder
0.373 nM	B4
0.039 nM	B5
0.043 nM	B6
0.0123 nM	B7
0.282 nM	B8
0.0725 nM	B9
0.088 nM	B10
0.254 nM	B11
0.104 nM	B12
0.103 nM	B13
0.097 nM	B14
